In assay [1] the target is T1, A isoform of the insulin receptor (UniProt P06213-2 28-1370, limits assumed).
T1 construct: isoform A lacks exon 11; also called IR-A
Nature of the assay: competitive displacement of radiolabelled tracer, receptor on microtiter plates coated with AU5 IgG. The method, then: The assay employed the A isoform of the insulin receptor. […] The protocol for assay of receptor-binding activities was as follows. Microtiter strip plates (Nunc Maxisorb) were incubated overnight at 4° C. with AU5 IgG (100 μl/well of 40 mg/ml in phosphate-buffered saline). Binding data were analyzed by a two-site sequential model.

In a further assay the target is T2, Type 1 IGF-I receptor (UniProt P08069 31-1367, limits assumed).
T2 construct: also called IGF-1R; Type 1 insulin-like growth factor receptor
Put plainly: competitive receptor-binding assay, against wild-type human insulin as reference.

Bridges are numbered along the chain shown (N, C = ends). Where no end group is shown, it is not given here.

B1: SCI-57DP (ligand)
chain: FVNQHLCGSHLVEALYLVCGERGFFYTDPTEEGPRRGIVEQCCHSICSLEQLENYCN
modifications: disulfide 19-56, 42-47, 7-43
notes: Made in Pichia pastoris; the cleaved product has 57 residues with native disulfide bridges; also called SCI-2; Thermalin-biphasic
A word on the Kd: it is the equilibrium constant for the complex coming apart. Consider B1, for which the Kd in assay [1] amounted to 60 pM. In addition, the “fold lower affinity than wild-type human insulin” value with Type 1 IGF-I receptor was determined as 5 fold.

B2: SCI-57PE (ligand)
chain: FVNQHLCGSHLVEALYLVCGERGFFYTPETEEGPRRGIVEQCCHSICSLEQLENYCN
modifications: disulfide 19-56, 42-47, 7-43
notes: Made in Pichia pastoris; the cleaved product has 57 residues with native disulfide bridges; also called SCI-1; Thermalin-biphasic
For B2, the dissociation constant Kd in assay [1] was determined as 80 pM. This counts as picomolar.

For the origin of these results see patent publication US20180265560A1 (CASE WESTERN RESERVE UNIVERSITY, published 2018).
